PMC3237458 (2011)
Square brackets hold non-standard residues; d marks the D form. Ends that are not written are not given here. * marks the point of attachment. Biotin = O=C1N[C@H]2[C@H](CS[C@H]2CCCCC(=O)*)N1; Ahx = NCCCCCC(=O)O

T1: EphB4 Fc (UniProt P54761 16-539)
T1 chain: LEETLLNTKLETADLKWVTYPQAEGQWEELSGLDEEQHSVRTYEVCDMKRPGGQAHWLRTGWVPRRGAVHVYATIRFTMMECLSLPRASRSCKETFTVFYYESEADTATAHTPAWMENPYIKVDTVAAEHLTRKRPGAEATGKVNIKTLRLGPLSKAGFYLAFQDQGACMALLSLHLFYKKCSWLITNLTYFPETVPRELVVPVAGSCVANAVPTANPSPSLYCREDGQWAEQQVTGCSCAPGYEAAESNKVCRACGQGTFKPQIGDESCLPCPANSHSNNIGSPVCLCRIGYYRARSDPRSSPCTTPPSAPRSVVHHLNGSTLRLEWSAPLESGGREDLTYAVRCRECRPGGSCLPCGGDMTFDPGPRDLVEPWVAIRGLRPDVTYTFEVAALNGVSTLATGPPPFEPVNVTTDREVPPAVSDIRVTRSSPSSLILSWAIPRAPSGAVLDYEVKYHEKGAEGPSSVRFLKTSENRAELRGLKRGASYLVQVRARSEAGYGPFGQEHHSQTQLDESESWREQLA

T2: mouse EphB4 AP (mouse, UniProt P54761 16-539)
T2 chain: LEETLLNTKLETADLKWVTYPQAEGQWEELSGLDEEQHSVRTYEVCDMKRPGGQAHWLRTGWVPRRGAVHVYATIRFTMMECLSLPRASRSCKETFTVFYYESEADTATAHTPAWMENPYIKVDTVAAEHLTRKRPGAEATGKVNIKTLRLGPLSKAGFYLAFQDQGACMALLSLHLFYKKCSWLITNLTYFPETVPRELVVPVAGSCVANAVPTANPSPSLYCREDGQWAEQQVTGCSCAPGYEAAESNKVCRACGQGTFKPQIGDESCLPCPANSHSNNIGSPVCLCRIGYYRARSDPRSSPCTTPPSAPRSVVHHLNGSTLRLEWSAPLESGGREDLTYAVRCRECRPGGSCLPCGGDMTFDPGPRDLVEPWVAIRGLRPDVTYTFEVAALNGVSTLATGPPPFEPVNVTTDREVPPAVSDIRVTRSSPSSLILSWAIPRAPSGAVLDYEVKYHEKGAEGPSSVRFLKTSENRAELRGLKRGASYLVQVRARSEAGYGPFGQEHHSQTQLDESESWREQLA


Columns and labels:
EphB4 Fc [1] = molecular target: T1, EphB4 Fc; experiment: ELISA; competition with ephrin-B2 AP
mouse EphB4 AP = molecular target: T2, mouse EphB4 AP; experiment: ELISA
EphB4 Fc [2] = molecular target: T1, EphB4 Fc; experiment: ELISA

Row | Binder | IC50 (EphB4 Fc [1]) | Kd (mouse EphB4 AP) | Kd (EphB4 Fc [2])
1 | TNYLFSPNGPIARAWGSGSK (Fc fusion) [TNYL-RAW fused with human Fc (TNYL-RAW-Fc)] | 6.5 nM | 4.7 nM | –
2 | {PEG 40 kDa branched (NHS-glutaryl)}-TNYLFSPNGPIARAW [PEGylated TNYL-RAW (PEG-TNYL-RAW)] | 24 nM | – | 2.9 nM

Results, then the binder that gave them:

Row | IC50 (EphB4 Fc [1]) | Kd (mouse EphB4 AP) | Kd (EphB4 Fc [2]) | Binder
3 | 13 nM | – | – | TNYLFSPNGPIARAW [TNYL-RAW peptide]
4 | – | 11 nM | 2.7 nM | TNYLFSPNGPIARAW[Ahx]K(Biotin) [biotinylated TNYL-RAW peptide]
